The results in this text go back to patent US20210292393A1.

Values joined by “and” are separate entries in the source; they are usually repeats but may differ in a detail not shown here. Identical values can stand only once.

Conditions in all cases: remark: other sources report otherwise
For test [1], the target named is SARS-CoV-2 full length spike protein, wild type, expressed on the surface of transiently transfected CHO cells (SARS-CoV-2), P0DTC2.
Test [2] has as its target SARS-CoV-2 spike protein (SARS-CoV-2), P0DTC2.
Test [3] has as its target T1, SARS-CoV-2 full length spike protein (wild type) (SARS-CoV-2), P0DTC2.
Test [4] addresses SARS-CoV-2 spike (S) protein, full length, wild type, expressed on the surface of CHO cells (SARS-CoV-2), P0DTC2.
The target of test [5] is SARS-CoV-2 full length spike protein (wild-type) (SARS-CoV-2), P0DTC2.
Test [6] addresses SARS-CoV-2 full length spike protein (wild type), conjugated to beads (SARS-CoV-2), P0DTC2.
For test [7], the target named is T1, SARS-CoV-2 full length spike protein …. The source holds these as a separate data set.
Test [8] deals with SARS-CoV-2 spike (S) protein (SARS-CoV-2), P0DTC2.
In test [9] the target is SARS-CoV-2 full length spike protein (wild-type), conjugated to optically encoded beads (SARS-CoV-2), P0DTC2.
Test [10] addresses SARS-CoV-2 full length spike protein, wild type, expressed on the surface of CHO cells (SARS-CoV-2), P0DTC2.

B1: antibody 389 (antibody, V domains shown)
VH: QVQLVESGGGVVQPGRSLRLSCAASGFTFSSYAMHWVRQAPGKGLEWVAVISYDGSNKYYADSVKGRFTISRDNSKNTLYLQMNSLRAEDTAVYYCASQGRMYVRGVDYGVYWGQGTLVTVSS
VL: NFMLTQPHSVSESPGKTVTISCTGSSGSIASNYVQWYQQRPGSAPTTVIYEDNQRPSGVPDRFSGSIDSSSNSASLTISGLKTEDEADYYCQSYDSSKISHAVFGGGTQLTVL
A word on the Kd: it is a measure of binding affinity in units of concentration. In general, koff refers to the first-order rate constant of dissociation. Higher therefore signals a short-lived complex. The kon is a measure of how fast the partners come together. Lower therefore signals slower complex formation. As to B1, the median fluorescence fold over isotype control (fold over isotype) in [1] was 0.72. In test [2], this molecule came in with a dissociation constant (Kd) of less than 0.0222 nM, a koff of less than 1e-05 s⁻¹ and a kon of 450000 M⁻¹ s⁻¹.

B2: antibody 337 (antibody, V domains shown)
VH: QVQLVESGGGVVQPGRSLRLSCAASGFTFSSYGMHWVRQAPGKGLEWVAIIWYDGSNKYYADSVKGRFTISRDNSKNTLYLQMNSLRAEDTAVYYCAKDTGGYCSGGSCYPESYFDYWGQGTLVTVSS
VL: SYVLTQPPSVSVAPGKTARITCGGNNIGSKSVHWYQQKPGQAPVLVIYYDSDRPSGIPERFSGSNSGNTATLTINRVEAGDEADYYCQVWDGSSDHLYVFGTGTKVTVL
Take B2: in test [3], the median fluorescence intensity fold over isotype (fold over isotype control) was found to be 756. The molecule further displayed a median fluorescence fold over isotype (fold over isotype) in test [4] of 2.08.

B3: antibody 444 (antibody, V domains shown)
VH: QVQLVESGGGLVKPGGSLRLSCAASGFTFSDYYMSWIRQAPGKGLEWVSYISSSGSTIYYADSVKGRFTISRDNAKNSLYLQMNSLRAEDTAVYYCARERKVVVAATRNYYYYYGMDVWGQGTTVTVSS
VL: SYELTQPPSVSVSPGQTARITCSGDALPKQYAYWYQQKPGQAPVLVIYKDSERPSGIPERFSGSSSGTTVTLTISGVQAEDEADYYCQSADSSTWVFGGGTKLTVL
Consider B3, for which the Binding to Wild-Type SARS-CoV-2 (Bead Assay) in test [5] was 0.97 and 0.91 and 0.9. In test [2], this molecule returned a dissociation constant (Kd) of 27.2 nM, a dissociation rate constant (koff) of 0.000717 s⁻¹ and an on-rate (kon) of 26400 M⁻¹ s⁻¹.

B4: antibody 396 (antibody, V domains shown)
VH: QVQLQQWGAGLLKPSETLSLTCAVYGGSFSGYYWSWIRQPPGKGLEWIGEIIHSGSTNYNPSLKSRVTISVDTSKNQFSLKLSSVTAADTAVYYSARRTGLLWFREGSYYFDYWGQGTLVTVSS
VL: DIQMTQSPSSLSASVGDRVTITCRASQGIRNDLGWYQQKPGKAPKRLIYAASSLQSGVPSRFSGSGSGTEFTLTISSLQPEDFATYYCLQHNSYPLTFGGGTKVEIK
Regarding B4, the binding signal, bead assay (fold over isotype) in test [6] stood at 553.

B5: antibody 269 (antibody, V domains shown)
VH: QLQLQESGPGLVKPSETLSLTCTVSGGSISSSSYYWGWIRQPPGKGLEWIGNIYYSGSTYYNPSLKSRVTISVDTSKNQFSLKLSSVTAADTAVYYCAGEELDIVATIYSSRYYYYGMDVWGQGTTVTVSS
VL: QSALTQPASVSGSPGQSITISCTGTSSDVGGYNYVSWYQQHPGKAPKLMIYEVSNRPSGVSNRFSGSKSGNTASLTISGLQAEDEADYYCSSYTSTSTLVFGGGTKLTVL
Take B5: the binding signal, bead assay (fold over isotype) in test [3] is 480 and 191 and 188. For the same molecule, in test [7], the median fluorescence intensity, fold over isotype control (fold over isotype) is 13.3 and 9.09. In [8], this molecule had a Kd of 7.29 nM, an off-rate constant (koff) of 0.000444 s⁻¹ and a kon of 60900 M⁻¹ s⁻¹.

B6: antibody 279 (antibody, V domains shown)
VH: EVQLLESGGGLVQPGGSLRLSCAASGFTFSSYAMSWVRQAPGKGLEWVSTISGSGGNTYYADSVKGRFTISRDNSKNTLYLQMNSLRAEDTAVYYCAKDLFQGLYYGSGEFDYWGQGTLVTVSS
VL: QSALTQPASVSGSPGQSITISCTGTSSDVGAYNYVSWYQQHPGKAPKLMIYGVSNRPSGVSNRFSGSKSGNTASLTISGLQAEDEADYYCSSYTSSSTRVFGTGTKVTVL
Turning to B6, the binding signal, bead assay (fold over isotype) in test [3] is 3.09 and 1.36 and 1.11. The median fluorescence intensity, fold over isotype control (fold over isotype) in test [7] was 8.59 and 3.84. In test [8], this molecule yielded a Kd of 52.3 nM, a koff of 0.00195 s⁻¹ and an on-rate constant (kon) of 37300 M⁻¹ s⁻¹.

B7: antibody 392 (antibody, V domains shown)
VH: QVQLQESGPGLVKPSGTLSLTCAVSGGSISSSNWWSWVRQPPGKGLEWIGEIYHSGSTNYNPSLKSRVTISVDKSKNQFSLKLSSVTAADTAVYYCARGWRATLYGMDVWGQGTTVTVSS
VL: QSALTQPASVSGSPGQSITISCTGTSSDVGSYNLVSWYQQHPGKAPKLMIYEVSKRPSGVSNRFSGSKSGNTASLTISGLQAEDEADYYCCSYAGSSTWVFGGGTKLTVL
B7: in [6], the binding signal, bead assay (fold over isotype) worked out at 509.

B8: antibody 413 (antibody, V domains shown)
VH: EVQLVESGGGLIQPGGSLRLSCAASGFTVSGNYMNWVRQAPGKGLEWVSVIYSGGSTYYADSVKGRFTISRANSKNTLYLQMNSLRAEDTAVYYCASTSLVRGLIILYYYGMDVWGQGTTVTVSS
VL: QSALTQPASVSGSPGQSITISCTGTSSDVGGYNYVSWYQQHPGKAPKLMIYEVSNRPSGVSNRFSGSKSGNTASLTISGLQAEDEADYYCSSYTSSSTLVFGGGTKLTVL
B8: in [5], the Binding to Wild-Type SARS-CoV-2 (Bead Assay) is 969 and 367 and 416. The median fluorescence fold over isotype control (fold over isotype) in test [1] was determined as 1.11. Besides, in test [2], the Kd is less than 0.0338 nM, the dissociation rate constant (koff) was less than 1e-05 s⁻¹ and the kon was found to be 296000 M⁻¹ s⁻¹.

B9: antibody 507 (antibody, V domains shown)
VH: QVQLQESGPGLVKPSGTLSLTCAVSGGSISSSNWWSWVRQPPGKGLEWIGEIYHSGNTNYNPSLKSRVTISVDKSKNQFSLKLSSVTAADTAVYYCARREWLRLFDYWGQGTLVTVSS
VL: QSALTQPASVSGSPGQSITISCTGTSSDVGSYNLVSWYQQHPGKAPKLMIYEVSKRPSGVSNRFSGSKSGNTASLTISGLQAEDEADYYCCSYAGSSTYVFGTGTKVTVL
In turn, B9 came in with a median fluorescence fold over isotype (fold over isotype) in test [9] of 571. For the same molecule, in test [10], the median fluorescence fold over isotype control (fold over isotype) stood at 1.51.

B10: antibody 416 (antibody, V domains shown)
VH: EVQLVESGGGLVQPGRSLRLSCAASGFTFDDYAMHWVRQAPGKGLEWVSGISWNSGSIGYADSVKGRFTISRDNAKNSLYLQMNSLRAEDTALYYCAKDLAWLSGGMDVWGQGTTVTVSS
VL: not shown
As to B10, the Binding to Wild-Type SARS-CoV-2 (Bead Assay) in test [5] is 110.

B11: antibody 538 (antibody, V domains shown)
VH: QLQLQESGPGLVKPSETLSLTCTVSGGSISSSSYYWGWIRQPPGKGLEWIGSINYSGSTYYNPSLKSRVTISVDTSKNQFSLKLSSVTAADTAVYYCARYHDYGDDYWGQGTLVTVSS
VL: QLVLTQSPSASASLGASVKLTCTLSSGHSRYAIAWHQQQPEKGPRYLMKLNSDGSHSKGDGIPDRFSGSSSGAERYLTISSLQSEDEADYYCQTWGTGIQVFGGGTKLTVL
Consider B11, for which the median fluorescence fold over isotype (fold over isotype) in test [9] is 607. In addition, the median fluorescence fold over isotype control (fold over isotype) in test [10] is 1.96.

B12: antibody 544 (antibody, V domains shown)
VH: QVQLQQWGAGLLKPSETLSLTCAVYGGSFSGYYWSWIRQPPGKGLEWIGEINHSGSTNYNPSLKSRVTISVDTSKNQFSLKLSSVTAADTAVYYCARGFKWFGELLFGAQGTLVTVSS
VL: not shown
In turn, B12 registered a median fluorescence fold over isotype (fold over isotype) in test [9] of 639. Further, the median fluorescence fold over isotype control (fold over isotype) in test [10] turned out to be 2.48.

B13: antibody 315 (antibody, V domains shown)
VH: QVQLVQSGSELKKPGASVKLSCQASGYSFTNHAMNWVRQAPGQGLEWMGWINTNTGNPTYAQGFTGRFVFSLDTSVSTTYLHISSLKAEDTAVYYCARASARPGVATNLDFWGQGTLVVVSS
VL: DIQMTQSPSSLSASVGDRVTITCRASQNIDNYLNWYQQKPGKAPKLLIYAASRLHSGVPSRFSGSGSGTDFTLIISSLQPEDLATYYCQQSYSNPLTFGPGTKVDIR
On to B13, for which the median fluorescence intensity fold over isotype (fold over isotype control) in test [3] is 592. The median fluorescence intensity, fold over isotype control (fold over isotype) in [7] came out at 8.85.

B14: antibody 362 (antibody, V domains shown)
VH: QVQLVESGGGVVQPGRSLRLSCAASGFNLSNYAMHWVRQASGKGLEWVSLISYDGSVKYYTDSVKGRFTVSGDNSKNTLFLQMNSLRPDDSALYYCVRGGVSGPNSFDMWGQGTTVTVSS
VL: DVVMTQSPLSLPVTLGQPATISCRSSQSLVYSDGNTYVNWFQQRPGQSPRRLIYQVSIRASGVPDRFSGSGSGTDFALKISRVEAEDVGVYYCMQGTHWPVTFGQGTKVEIK
Take B14: the median fluorescence intensity fold over isotype (fold over isotype control) in [3] amounted to 503. In test [4], the median fluorescence fold over isotype (fold over isotype) is 9.45.

B15: antibody 325 (antibody, V domains shown)
VH: QVQLQESGPGLVKPSQTLSLTCTVSGGSISGGGYYWSWIRQHPGKGLEWIGYIYYSGSTYYNPSLQSRVTISVDTSKNQFSLKLSSVTAADTAVYYCARVGTSSVWYFDYWGQGTLVTVSS
VL: QSALTQPRSVSGSPGQSVTISCTGTSSDVGGYNYVSWYQQHPGKAPKLMIYDVTKRPSGVPDRFSGSKSGNTASLTISGLQAEDEADYYCSSYAGSWVFGGGTKLTVL
With B15, the median fluorescence fold over isotype (fold over isotype) in test [4] is 1.14 and 1.08. In test [8], this molecule registered a Kd of 7.36 nM, a koff of 0.000154 s⁻¹ and a kon of 20900 M⁻¹ s⁻¹.

B16: antibody 322 (antibody, V domains shown)
VH: EVQLVESGGGLVQPGGSLRLSCAASGFTFSSYWMSWVRQAPGKGLEWVANIKQDGSEKYYVDSVKGRFTISRDNAKNSLYLQMNSLRAEDTAVYYCARDEDVAAALDYWGQGTLVTVSS
VL: SYVLTQPPSVSVAPGKTARITCGGNNIGSKSVHWYQQKPGQAPVLVIYYDSDRPSGIPERFSGSNSGNTATLTISRVEAGDEADYYCQVWDSSSDHPERVFGGGTKLTVL
In the case of B16, the median fluorescence fold over isotype (fold over isotype) in [4] was 4.94 and 1.65. Further, in test [8], the Kd came out at 21.1 nM, the dissociation rate constant (koff) stood at 0.000401 s⁻¹ and the association rate constant (kon) is 19000 M⁻¹ s⁻¹.
